In article PMC8249414, “Structural basis of ALC1/CHD1L autoinhibition and the mechanism of activation by the nucleosome” (Nature Communications, 2021):

Columns and labels:
[1] = biological target: histone H4 (in the nucleosome) (UniProt P62799 2-103); experiment: cryo-EM structure; R857Q of ALC1 (30 μM) mixed with 167NCP (6 μM), ADP-BeFx, GraFix; single-binding map 2.8 Å; a class with two copies of ALC1 on the nucleosome 3.3 Å; conditions: both partners purified
[2] = biological target: T1, human ALC1 (residues 1-880) (human, UniProt Q86WJ1); experiment: crystal structure; ALC1-scFv complex (mixed 1:1.1, purified on Superdex 200), crystallised in the presence of ADP-Mg; 3.5 Å; conditions: both partners purified
T1 construct: ALC1 (CHD1L), human, residues 1-880 cloned from cDNA; the crystallised construct holds the motor domain, the linker region and the macro domain; also called CHD1L; WT; source: E. coli Rosetta (DE3), purified (Ni-NTA, Source-15S, Superdex-200)

B1: ALC1 R857Q mutant (enzyme)
chain: MERAGATSRGGQAPGFLLRLHTEGRAEAARVQEQDLRQWGLTGIHLRSYQLEGVNWLAQRFHCQNGCILGDEMGLGKTCQTIALFIYLAGRLNDEGPFLILCPLSVLSNWKEEMQRFAPGLSCVTYAGDKEERACLQQDLKQESRFHVLLTTYEICLKDASFLKSFPWSVLVVDEAHRLKNQSSLLHKTLSEFSVVFSLLLTGTPIQNSLQELYSLLSFVEPDLFSKEEVGDFIQRYQDIEKESESASELHKLLQPFLLRRVKAEVATELPKKTEVVIYHGMSALQKKYYKAILMKDLDAFENETAKKVKLQNILSQLRKCVDHPYLFDGVEPEPFEVGDHLTEASGKLHLLDKLLAFLYSGGHRVLLFSQMTQMLDILQDYMDYRGYSYERVDGSVRGEERHLAIKNFGQQPIFVFLLSTRAGGVGMNLTAADTVIFVDSDFNPQNDLQAAARAHRIGQNKSVKVIRLIGRDTVEEIVYRKAASKLQLTNMIIEGGHFTLGAQKPAADADLQLSEILKFGLDKLLASEGSTMDEIDLESILGETKDGQWVSDALPAAEGGSRDQEEGKNHMYLFEGKDYSKEPSKEDRKSFEQLVNLQKTLLEKASQEGRSLRNKGSVLIPGLVEGSTKRKRVLSPEELEDRQKKRQEAAAKRRRLIEEKKRQKEEAEHKKKMAWWESNNYQSFCLPSEESEPEDLENGEESSAELDYQDPDATSLKYVSGDVTHPQAGAEDALIVHCVDDSGHWGRGGLFTALEKRSAEPRKIYELAGKMKDLSLGGVLLFPVDDKESRNKGQDLLALIVAQHRDRSNVLSGIKMAALEEGLKKIFLAAKKKKASVHLPRIGHATKGFNWYGTEQLIRKHLAARGIPTYIYYFPRSKS
notes: ALC1 (CHD1L), human, residues 1-880 with R857Q; the mutant was made by mutagenesis; also called R857Q of ALC1; source: E. coli Rosetta (DE3), purified (Ni-NTA, Source-15S, Superdex-200)
binding result [1]: binds

B2: single-chain antibody (scFv) against ALC1 used for crystallization (scFv, V domains shown)
VH: QVQLQQSGPGLVRPSQTLSLTCAISGDSVSDNDAAWNWVRQSPSRGLEWLGRTYYRSKWSNEYAVFVQSRITINPDTSKNQFSLHLNSVTPEDTAVYYCARATRPTGNGLDIWGQGTMVTVSS
VL: SYVLTQPPSVSVAPGQTARITCGGNNIGSKSVHWYQQKPGQAPVLVVYDDSDRPSGIPERFSGSNSGNTAALTISRVEAGDEADYYCQVWDSSSDHVVFGGGTKLTVL
notes: human scFv from a non-immunized yeast-display library; One of seven clones; also called the antibody; source: HEK293F, transfected, secreted, purified (Ni-NTA, Superdex 75)
binding result [2]: binds
